The source of these data is patent US20070253966A1.

The assay deals with human GLP-1 receptor (human) (UniProt P43220). Briefly: cell-based or functional assay.
Sequence of UniProt P43220 (P43220 24-463): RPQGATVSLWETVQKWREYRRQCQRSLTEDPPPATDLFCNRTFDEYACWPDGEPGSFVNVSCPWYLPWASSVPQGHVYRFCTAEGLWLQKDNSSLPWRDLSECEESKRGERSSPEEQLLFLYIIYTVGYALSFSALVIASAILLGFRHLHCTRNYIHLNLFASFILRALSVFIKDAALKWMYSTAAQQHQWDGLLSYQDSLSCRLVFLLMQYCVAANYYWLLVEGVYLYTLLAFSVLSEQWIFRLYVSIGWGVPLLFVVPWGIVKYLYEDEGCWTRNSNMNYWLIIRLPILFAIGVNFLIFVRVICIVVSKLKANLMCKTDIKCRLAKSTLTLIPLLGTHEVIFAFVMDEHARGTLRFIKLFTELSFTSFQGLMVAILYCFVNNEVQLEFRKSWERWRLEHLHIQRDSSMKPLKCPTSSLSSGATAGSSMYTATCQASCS

Consider “Gly^8-Glu^22-GLP-1(7-37)-1L-IgG4 (S228P, F234A, L235A) (from UniProt P01275 98-128) (Fc fusion)”, for which the Activity (EC50 relative to Val^8-GLP-1(7-37)OH), CRE-BLAM beta-lactamase reporter in HEK-293 cells expressing human GLP-1 receptor came to 468% and the Activity (EC50 relative to Val^8-GLP-1(7-37)OH, corrected for 2-fold molarity of the dimer), CRE-Luciferase reporter in HEK-293 cells stably expressing human GLP-1 receptor is 1120%.
“Val^8-GLP-1(7-37)OH (from UniProt P01275 21-180) (peptide)” came in with an Activity (EC50 relative to Val^8-GLP-1(7-37)OH), CRE-BLAM beta-lactamase reporter in HEK-293 cells expressing human GLP-1 receptor of 100% and an Activity (EC50 relative to Val^8-GLP-1(7-37)OH), CRE-Luciferase reporter in HEK-293 cells stably expressing human GLP-1 receptor of 100%.
The substance “Gly^8-Glu^22-GLP-1(7-37)-1.5L-IgG4 (S228P, F234A, L235A) (from UniProt P01275 98-128) (Fc fusion)” returned an Activity (EC50 relative to Val^8-GLP-1(7-37)OH), CRE-BLAM beta-lactamase reporter in HEK-293 cells expressing human GLP-1 receptor of 314% and an Activity (EC50 relative to Val^8-GLP-1(7-37)OH, corrected for 2-fold molarity of the dimer), CRE-Luciferase reporter in HEK-293 cells stably expressing human GLP-1 receptor of 595%.
With “Gly^8-Glu^22-GLP-1(7-37)-2L-IgG4 (S228P, F234A, L235A) (from UniProt P01275 98-128) (Fc fusion)”, the Activity (EC50 relative to Val^8-GLP-1(7-37)OH), CRE-BLAM beta-lactamase reporter in HEK-293 cells expressing human GLP-1 receptor was found to be 301% and the Activity (EC50 relative to Val^8-GLP-1(7-37)OH, corrected for 2-fold molarity of the dimer), CRE-Luciferase reporter in HEK-293 cells stably expressing human GLP-1 receptor came out at 535%.
